Consider eight molecules from patent EP4269437A1 (Zhejiang Nanomab Technology Center Co. Ltd., dated 2023).

Changes are numbered by the printed parent chain. Where two headings read alike, the source gives them in different places.

The target of assay [1] is T1, PD-1 (UniProt Q15116 25-170, limits assumed).
T1 construct: also called PD-1 protein
Description: SPR; set-up and antigen form not restated. (In general: SPR reads the build-up and loss of mass on a sensor chip optically.)

Assay [2] addresses T1, PD-1. Description: SPR; set-up and antigen form not restated. This is another data set of the same source.
In assay [3] the target is T1, PD-1. Description: SPR; set-up and antigen form not restated. This is another data set of the same source.
In assay [4] the target is PD-1 on GS-J2/PD1 effector cells (UniProt Q15116 25-288, limits assumed). Description: cell-based or functional assay.
The target in another assay is T2, murine PD-1 protein (murine, UniProt Q02242 25-167, limits assumed).
T2 construct: bought
T2 sequence (looked up): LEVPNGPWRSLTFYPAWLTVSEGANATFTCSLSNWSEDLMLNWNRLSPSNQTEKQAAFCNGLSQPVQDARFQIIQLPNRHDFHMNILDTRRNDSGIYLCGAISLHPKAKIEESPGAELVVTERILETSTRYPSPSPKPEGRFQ
Description: ELISA on coated protein, anti-human Fc HRP. On the technique in general: In an ELISA, binding on a coated surface is turned into a signal by an enzyme label.

The target in another assay is T3, CTLA-4 (UniProt P16410 36-161, limits assumed).
T3 construct: bought
Nature of the assay: ELISA on coated protein, anti-human Fc HRP.

The next assay has as its target T4, ICOS (UniProt Q9Y6W8 21-140, limits assumed).
T4 construct: bought
T4 sequence (looked up): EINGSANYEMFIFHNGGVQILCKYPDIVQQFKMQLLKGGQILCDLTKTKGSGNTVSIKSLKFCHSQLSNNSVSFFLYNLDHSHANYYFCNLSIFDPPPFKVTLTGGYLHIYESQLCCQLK
Nature of the assay: ELISA on coated protein, anti-human Fc HRP.

For the next assay, the target named is T5, CD28 (UniProt P10747 19-152).
T5 construct: bought
Nature of the assay: ELISA on coated protein, anti-human Fc HRP.

Another assay addresses T6, human PD-1.Fc (human, UniProt Q15116 25-170, limits assumed).
T6 construct: also called PD-1; Fc protein; PD-1.hFc; not shown: human IgG Fc fragment
Nature of the assay: SPR, antibody captured on protein A, PD-1.Fc in flow.

For the next assay, the target named is T7, PD-1.His (UniProt Q15116 25-170, limits assumed).
T7 construct: not shown: His tag
Description: SPR, antibody captured on protein A, PD-1.His in flow.

T6 sequence (Q15116 25-170 limits assumed): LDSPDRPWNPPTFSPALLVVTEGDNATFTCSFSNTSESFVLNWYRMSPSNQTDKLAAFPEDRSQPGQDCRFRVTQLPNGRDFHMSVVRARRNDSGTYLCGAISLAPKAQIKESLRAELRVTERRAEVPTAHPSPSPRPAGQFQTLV
T7 sequence (Q15116 25-170 limits assumed): as above
T1 sequence (Q15116 25-170 limits assumed): as above
T3 sequence (P16410 36-161 limits assumed): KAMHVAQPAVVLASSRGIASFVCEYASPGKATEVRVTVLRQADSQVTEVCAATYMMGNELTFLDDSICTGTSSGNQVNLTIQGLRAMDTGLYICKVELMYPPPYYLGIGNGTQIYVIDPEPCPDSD
Sequence of PD-1 on GS-J2/PD1 effector cells (Q15116 25-288 limits assumed): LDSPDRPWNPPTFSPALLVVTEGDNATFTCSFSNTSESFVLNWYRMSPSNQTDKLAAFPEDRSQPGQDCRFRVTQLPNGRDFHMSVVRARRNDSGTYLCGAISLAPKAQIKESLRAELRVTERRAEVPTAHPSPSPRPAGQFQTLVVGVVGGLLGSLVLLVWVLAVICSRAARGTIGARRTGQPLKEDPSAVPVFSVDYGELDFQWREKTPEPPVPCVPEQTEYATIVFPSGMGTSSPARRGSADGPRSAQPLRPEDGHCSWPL

B1: NB194-P29 (Fc fusion)
heavy: QLQLVESGGGSAQAGGSLTLSCTASGHSFSIYDMGWFRQAADKERESVAVINFGRGTTYYAESVKGRFTISLDSAKNTVYLQMNTLKPEDTAVYSCGIDRRQYGLGIPPLADHWGQGSQVTVSS
notes: not shown: IgG4 constant region of vector pCDNA3.4-IgG4
As to B1, the “fold increase in affinity compared to NB194” value in the assay with PD-1 [1] is 5 fold. Besides, in the assay with PD-1 [2], the Kd worked out at 0.118 nM, the koff came out at 2.86e-05 s⁻¹ and the kon was found to be 243000 M⁻¹ s⁻¹. Also, in the assay with PD-1 [3], binding was put at a Kd of 0.151 nM, the koff was determined as 4.37e-05 s⁻¹ and the kon came out at 290000 M⁻¹ s⁻¹.

B2: NB194-P29-z7 (Fc fusion)
heavy: B1 heavy with L2V, S11L, A12V, A14P, T19R, T23S, S74N, T85S, K87R, P88A
notes: as for B1
B2: in the assay with PD-1 [3], the Kd worked out at 0.15 nM, the koff is 2.18e-05 s⁻¹ and the kon is 145000 M⁻¹ s⁻¹.

B3: NB182 (Fc fusion)
heavy: QVQLVESGGGLVQAGGSLRLSCAASGDTSFISAAGWYRQAPGKERELVAAITNTGITYYPDSVKGRFTISRDNAKNTVYLQMNNLKPEDTAVYYCNAGAPPPGGLGYDESDYWGQGTQVTVSS
notes: as for B1
As to B3, in [4], the “Reporter Gene Assay EC50 (luciferase)” value was 16.3 nM. In addition, the binding result in the assay with murine PD-1 protein is “no binding (tested: 0.1µg)”; with CTLA-4, “no binding”; in the assay with ICOS, “no binding”; in the assay with CD28 it was “no binding”. Besides, the Kd with human PD-1.Fc and with PD-1.His was 8.67 nM each time. The koff with human PD-1.Fc and in the assay with PD-1.His was 6.4e-05 s⁻¹ in each case. In addition, the kon in the assay with human PD-1.Fc and with PD-1.His was 7380 M⁻¹ s⁻¹ each time.

B4: NB194-P29-z6 (Fc fusion)
heavy: QVQLVESGGGLVQPGGSLRLSCSASGHSFSIYDMGWFRQAAGKERESVAVINFGRGTTYYAESVKGRFTISRDNAKNTVYLQMNSLRAEDTAVYSCGIDRRQYGLGIPPLADHWGQGSQVTVSS
notes: as for B1
In the assay with PD-1 [3], B4 came in with a Kd of 0.268 nM, a koff of 3.02e-05 s⁻¹ and a kon of 113000 M⁻¹ s⁻¹.

B5: NB194-P29-z8 (Fc fusion)
heavy: B4 heavy with A41P
notes: as for B1
With B5, in the assay with PD-1 [3], the Kd turned out to be 0.235 nM, the koff came out at 2.54e-05 s⁻¹ and the kon turned out to be 108000 M⁻¹ s⁻¹.

B6: NB194-P29-z10 (Fc fusion)
heavy: B4 heavy with Q1E, V2L, S23A, G42D
notes: as for B1
In the assay with PD-1 [3], B6 displayed a Kd of 0.179 nM, an off-rate (koff) of 1.74e-05 s⁻¹ and a kon of 96800 M⁻¹ s⁻¹.

B7: NB194-P29-z9 (Fc fusion)
heavy: B4 heavy with H27F, S28T, G42D
notes: as for B1
In the case of B7, in the assay with PD-1 [3], the Kd worked out at 0.406 nM, the koff was 5.03e-05 s⁻¹ and the kon came out at 124000 M⁻¹ s⁻¹.

B8: NB194 (Fc fusion)
heavy: QVQLVETGGGLVRAGGSLRLSCTASGRPFSIYDMGWFRQAPDKERESVAVINLSRGDTYYADSVKGRFTISLDSAKNTVYLQMNSLKPEDTAVYSCGVDRRQYGLGIPPLADHWGQGTQVTVSS
notes: as for B1
As for B8, the “Reporter Gene Assay EC50 (luciferase)” value in assay [4] is 7 nM. Besides, the binding result with murine PD-1 protein was “no binding (tested: 0.1µg)”; in the assay with CTLA-4 it was “no binding”; in the assay with ICOS, “no binding”; with CD28, “no binding”. The Kd was 0.531 nM with PD-1 [2] and 0.494 nM with PD-1.His. Further, the koff with PD-1 [2] was 7.36e-05 s⁻¹; with PD-1.His, 0.000105 s⁻¹. The kon with PD-1 [2] amounted to 139000 M⁻¹ s⁻¹; in the assay with PD-1.His, 212000 M⁻¹ s⁻¹.

The term Kd denotes the concentration at which binding is half-saturated. Lower therefore signals higher affinity. One may read the koff as a measure of how fast the partners let go of each other. A low value points to slow dissociation. A word on the kon: it is the second-order rate constant of association. Low values mean slower complex formation, high ones faster complex formation.
